Results from the Human Domainome abundance scans (Beltran et al. 2025).
± gives the uncertainty stated by the source.

B1: Arginine-glutamic acid dipeptide repeats protein, residues 502 to 543; numbered along this chain, Q9P2R6 (parent)
chain: LKGYACRHCFTTTSKDWHHGGRENILLCTDCRIHFKKYGELP

Variants of: B1
Assay: abundance fitness (aPCA) (normalised: wild type 0, dead -1); higher = more abundant; growth selection in yeast, the domain comes from the species named
Settings: Homo sapiens

Row | Variant | abundance fitness
1 | S14T | -0.226 ± 0.049
2 | S14V | -0.476 ± 0.047
3 | S14W | -0.657 ± 0.058
4 | S14Y | -0.473 ± 0.09
5 | K15A | -0.107 ± 0.041
6 | K15C | -0.313 ± 0.045
7 | K15D | -0.099 ± 0.1
8 | K15E | 0.007 ± 0.035
9 | K15G | -0.174 ± 0.033
10 | K15H | -0.041 ± 0.06
11 | K15I | -0.222 ± 0.081
12 | K15M | -0.064 ± 0.095
13 | K15N | -0.324 ± 0.073
14 | K15P | -0.095 ± 0.049
15 | K15Q | -0.049 ± 0.048
16 | K15R | -0.053 ± 0.037
17 | K15S | -0.162 ± 0.034
18 | K15T | -0.002 ± 0.049
19 | K15V | -0.091 ± 0.048
20 | K15W | -0.489 ± 0.046
21 | K15Y | -0.229 ± 0.09
22 | D16A | -0.358 ± 0.038
23 | D16C | -0.633 ± 0.47
24 | D16E | -0.15 ± 0.041

Row | Variant | abundance fitness
25 | D16F | -0.48 ± 0.081
26 | D16G | -0.342 ± 0.038
27 | D16H | -0.501 ± 0.093
28 | D16K | -0.154 ± 0.049
29 | D16L | -0.442 ± 0.037
30 | D16M | -0.397 ± 0.039
31 | D16N | -0.277 ± 0.064
32 | D16P | -0.701 ± 0.08
33 | D16Q | -0.449 ± 0.062
34 | D16R | -0.451 ± 0.038
35 | D16S | -0.263 ± 0.049
36 | D16T | -0.391 ± 0.06
37 | D16V | -0.412 ± 0.036
38 | D16W | -0.515 ± 0.042
39 | D16Y | -0.555 ± 0.079
40 | W17A | -0.191 ± 0.036
41 | W17C | -0.295 ± 0.062
42 | W17D | -0.197 ± 0.075
43 | W17G | -0.154 ± 0.03
44 | W17K | -0.274 ± 0.057
45 | W17L | -0.186 ± 0.036
46 | W17M | -0.195 ± 0.038
47 | W17N | -0.276 ± 0.084
48 | W17P | -0.149 ± 0.053

Row | Variant | abundance fitness
49 | W17Q | -0.213 ± 0.053
50 | W17R | -0.276 ± 0.033
51 | W17S | -0.198 ± 0.051
52 | W17T | -0.227 ± 0.053
53 | W17V | -0.157 ± 0.039
54 | H18A | 0.09 ± 0.044
55 | H18C | -0.03 ± 0.055
56 | H18D | 0.115 ± 0.13
57 | H18F | -0.005 ± 0.046
58 | H18G | 0.057 ± 0.031
59 | H18I | -0.07 ± 0.047
60 | H18K | 0.055 ± 0.046
61 | H18L | -0.042 ± 0.044
62 | H18N | -0.132 ± 0.051
63 | H18P | -0.333 ± 0.045
64 | H18Q | 0.09 ± 0.064
65 | H18R | -0.193 ± 0.044
66 | H18S | 0.004 ± 0.038
67 | H18T | -0.029 ± 0.041
68 | H18W | -0.21 ± 0.068
69 | H18Y | -0.089 ± 0.1
70 | H19A | -0.048 ± 0.035
71 | H19C | -0.033 ± 0.083
72 | H19D | -0.225 ± 0.13

Row | Variant | abundance fitness
73 | H19E | 0.02 ± 0.04
74 | H19F | -0.064 ± 0.057
75 | H19G | -0.073 ± 0.033
76 | H19I | -0.045 ± 0.054
77 | H19K | -0.047 ± 0.061
78 | H19M | 0.008 ± 0.048
79 | H19P | -0.046 ± 0.043
80 | H19R | -0.047 ± 0.034
81 | H19S | -0.026 ± 0.035
82 | H19T | 0.095 ± 0.042
83 | H19W | -0.204 ± 0.044
84 | H19Y | -0.246 ± 0.1
85 | G20A | -0.16 ± 0.036
86 | G20C | -0.091 ± 0.057
87 | G20D | 0.097 ± 0.067
88 | G20E | -0.066 ± 0.036
89 | G20H | -0.203 ± 0.048
90 | G20I | -0.151 ± 0.053
91 | G20K | -0.379 ± 0.06
92 | G20L | -0.32 ± 0.056
93 | G20M | -0.205 ± 0.042
94 | G20P | -0.375 ± 0.072
95 | G20Q | -0.179 ± 0.059
96 | G20R | -0.45 ± 0.038

Row | Variant | abundance fitness
97 | G20S | -0.212 ± 0.043
98 | G20T | -0.292 ± 0.14
99 | G20V | -0.11 ± 0.035
100 | G20W | -0.141 ± 0.051
101 | G20Y | -0.422 ± 0.36
102 | G21A | -0.142 ± 0.034
103 | G21D | -0.236 ± 0.066
104 | G21E | -0.154 ± 0.046
105 | G21H | -0.044 ± 0.47
106 | G21I | -0.517 ± 0.23
107 | G21K | -0.377 ± 0.058
108 | G21L | -0.274 ± 0.037
109 | G21M | -0.291 ± 0.048
110 | G21N | -0.515 ± 0.14
111 | G21P | -0.24 ± 0.035
112 | G21Q | -0.222 ± 0.047
113 | G21R | -0.369 ± 0.038
114 | G21S | -0.056 ± 0.041
115 | G21V | -0.23 ± 0.037
116 | G21W | -0.493 ± 0.055
117 | G21Y | -0.534 ± 0.26
118 | R22A | 0.044 ± 0.035
119 | R22C | -0.067 ± 0.048
120 | R22D | -0.026 ± 0.041

Row | Variant | abundance fitness
121 | R22E | -0.02 ± 0.043
122 | R22F | -0.058 ± 0.1
123 | R22G | -0.048 ± 0.033
124 | R22H | -0.221 ± 0.31
125 | R22I | -0.157 ± 0.07
126 | R22K | 0.071 ± 0.05
127 | R22L | -0.081 ± 0.043
128 | R22M | -0.172 ± 0.087
129 | R22N | 0.008 ± 0.082
130 | R22P | -0.027 ± 0.053
131 | R22Q | 0.029 ± 0.053
132 | R22S | -0.055 ± 0.037
133 | R22T | 0.011 ± 0.042
134 | R22V | -0.039 ± 0.049
135 | R22W | -0.132 ± 0.039
136 | R22Y | 0.113 ± 0.095
137 | E23C | -0.159 ± 0.05
138 | E23D | 0.011 ± 0.054
139 | E23G | -0.113 ± 0.038
140 | E23H | -0.185 ± 0.25
141 | E23I | -0.322 ± 0.058
142 | E23K | -0.136 ± 0.051
143 | E23L | -0.225 ± 0.035
144 | E23M | -0.187 ± 0.051

Row | Variant | abundance fitness
145 | E23N | -0.099 ± 0.061
146 | E23Q | -0.038 ± 0.043
147 | E23R | -0.255 ± 0.036
148 | E23S | -0.174 ± 0.038
149 | E23T | -0.104 ± 0.043
150 | E23V | -0.338 ± 0.046
151 | E23Y | -0.489 ± 0.4
152 | N24A | -0.146 ± 0.035
153 | N24C | -0.349 ± 0.086
154 | N24E | -0.105 ± 0.041
155 | N24F | -0.242 ± 0.062
156 | N24G | -0.026 ± 0.034
157 | N24H | -0.094 ± 0.067
158 | N24I | -0.299 ± 0.086
159 | N24K | -0.157 ± 0.059
160 | N24L | -0.191 ± 0.044
161 | N24M | -0.107 ± 0.042
162 | N24P | -0.261 ± 0.049
163 | N24R | -0.146 ± 0.034
164 | N24S | 0 ± 0.035
165 | N24T | -0.239 ± 0.046
166 | N24V | -0.297 ± 0.048
167 | N24W | -0.189 ± 0.033
